From patent publication US8865222B2, “Beta-casein assemblies for enrichment of food and beverages and methods of preparation thereof” (Technion Research and Development Foundation Ltd., priority 2008, dated 2014)
Marks after values point to notes of the source that are not given here.

Legend:
[1] = depending on temperature, pH, solvent composition and ionic strength (Portnaya 2006); cited from earlier work
[2] = Analytical ultracentrifugation, sedimentation equilibrium; format: physicochemical
Experimental: • Cryo-TEM: Specimens were prepared in the controlled environment vitrification system (CEVS) (Bellare et al. Electron Microsc. Technique, 1988, 10; 87-111) at 24° C. and 100% relative humidity to avoid loss of volatiles. First, the solutions were incubated in the CEVS at the desired temperature for 1 h. Then, a 7 μL drop of each solution was placed on a TEM copper grid covered with a perforated carbon film (Pelco International) and blotted with filter paper to form a thin liquid film of the sample (100-200 nm thick). The thinned sample was plunged into liquid ethane at its freezing temperature (−183° C.) to form a vitrified specimen and then transferred to liquid nitrogen ([…]) for storage. The vitrified specimens were examined in a Philips CM120 transmission electron microscope operating at an accelerating voltage of 120 kV. We used an Oxford CT3500 (Oxford Instruments) cryoholder that maintained the specimens below −175° C. during sample transfer and observation. Images were recorded digitally on a cooled Gatan MultiScan 791 CCD camera using DigitalMicrograph 3.1 software (Gatan) in the low-dose imaging mode to minimize beam exposure and electron-beam radiation damage. • ITC: ITC measurements were performed with a VP-ITC calorimeter (MicroCal) at a temperature of 24° C. […] The micellar solution was injected into the reaction cell in 28 steps of 10 μL aliquots each, and the heat flow was measured. […] The average apparent molecular weight of the micelles at the various protein concentrations was calculated following methods well known in the art (The partial specific volume vj of the solute was taken to be 0.742 cm3/g3, and a solution density F of 1.0044 g/cm3 was measured). At beta-casein concentrations of 2 mg/mL and above under low pH conditions, the plot of the natural logarithm of the measured absorbance versus the square of the radius from the axis of rotation was not linear. […] The molecular weight calculated using this slope was divided by the monomer molecular weight calculated from the beta-casein amino acid sequence (24000). […]

[3] = Turbidity (solution absorbance at 600 nm); format: physicochemical; settings: pH 2.6, empty assemblies, up to at least 2 wt %
[4] = Cryo-TEM of beta-casein micelles and vitamin D loaded assemblies; format: physicochemical
Experimental: (§1) • Cryo-TEM: Specimens were prepared in the controlled environment vitrification system (CEVS) (Bellare et al. Electron Microsc. Technique, 1988, 10; 87-111) at 24° C. and 100% relative humidity to avoid loss of volatiles. First, the solutions were incubated in the CEVS at the desired temperature for 1 h. Then, a 7 μL drop of each solution was placed on a TEM copper grid covered with a perforated carbon film (Pelco International) and blotted with filter paper to form a thin liquid film of the sample (100-200 nm thick). The thinned sample was plunged into liquid ethane at its freezing temperature (−183° C.) to form a vitrified specimen and then transferred to liquid nitrogen ([…]) for storage. The vitrified specimens were examined in a Philips CM120 transmission electron microscope operating at an accelerating voltage of 120 kV. We used an Oxford CT3500 (Oxford Instruments) cryoholder that maintained the specimens below −175° C. during sample transfer and observation. Images were recorded digitally on a cooled Gatan MultiScan 791 CCD camera using DigitalMicrograph 3.1 software (Gatan) in the low-dose imaging mode to minimize beam exposure and electron-beam radiation damage. • ITC: ITC measurements were performed with a VP-ITC calorimeter (MicroCal) at a temperature of 24° C. The reaction cell (V=1.43 mL) was filled with degassed solvent (lactic acid at pH 2.6, or phosphate buffer at pH 7.0). The injector-stirrer syringe (289 μL) was loaded with a beta-casein micellar solution (20 mg/mL). The micellar solution was injected into the reaction cell in 28 steps of 10 μL aliquots each, and the heat flow was measured. During the titration, the stirring speed was 310 rpm. The duration of each injection was 20 s, and the equilibration time between consecutive injections was 3 min. Such an interval was sufficient to equilibrate the reaction cell after every injection. Each experiment was performed at least three times. Calorimetric data analysis was carried out using Origin 5.0 software (MicroCal). • Analytical Ultracentrifugation: Sedimentation equilibrium experiments were performed at 24° C. using a Beckman Optima XL-A (Palo Alto, Calif.) analytical centrifuge at 6000, 10000, and 12000 rpm for the low-pH solutions and at 4000, 6000, and 8000 rpm for the pH 7.0 solutions. Data were collected at 280 nm. The beta-casein solutions were studied at concentrations ranging from 0.2 to 10.0 mg/mL at pH 2.6 and from 0.2 to 2 mg/mL at pH 7.0 and an ionic strength of 0.1. […] The average apparent molecular weight of the micelles at the various protein concentrations was calculated following methods well known in the art (The partial specific volume vj of the solute was taken to be 0.742 cm3/g3, and a solution density F of 1.0044 g/cm3 was measured). At beta-casein concentrations of 2 mg/mL and above under low pH conditions, the plot of the natural logarithm of the measured absorbance versus the square of the radius from the axis of rotation was not linear. To estimate Nagg, the limiting slope toward the outer edge of the sample cell was used to provide dln(c)/dr^2. The molecular weight calculated using this slope was divided by the monomer molecular weight calculated from the beta-casein amino acid sequence (24000).
• Characterization of the beta-casein micelles by cryo-TEM: The structural characteristics of the micelles in the two pH environments were studied by cryo-TEM and SAXS. Cryo-TEM was used to determine the shape of the micelles and to estimate their dimensions between 4 and 40° C. This information was further used to accurately calculate by SAXS the micelles' dimensions and to study how the size and shape are affected by temperature. SAXS measurements also provided the critical micelle concentration (CMC) and the micelle aggregation numbers as a function of temperature. […]

[5] = Dynamic light scattering (DLS) particle size; format: physicochemical; settings: pH 2.6, pure beta-casein, FIG. 12
Experimental: The pure beta-casein micelles remain small, below 80 nm, consistent with the fact the solution remains transparent.
The particle size distribution and the turbidity of a vitamin D loaded beta-casein micellar solutions at pH 7.0 and pH 2.5 as a function of beta-casein concentration are shown in FIGS. 15 and 16 respectively. Vitamin D concentration in this experiment was kept constant (82.5 μg/ml; 0.2 mM) and the beta-casein concentration was raised gradually from 0 to 2% by weight (0 to 0.8 mM). […] This value is relatively low and the solutions looked transparent to the human eye.

[6] = Isothermal titration calorimetry (ITC) demicellization of beta-casein micellar solution; format: physicochemical
Experimental: as §1
• Characterization of the beta-casein micelles by ITC: beta-casein micellar solution was titrated into lactic acid buffer (pH 2.6) placed in the ITC cell, and the heat flow was measured as a function of time (FIG. 6A). Three factors contribute to the exothermic enthalpy changes observed at the initial injections: micelle dilution, demicellization, and dilution of individual beta-casein molecules. The enthalpy changes decrease in magnitude as more protein is added and the concentration in the ITC cell increases. Eventually, the concentration in the cell exceeds the CMC and only micelle dilution contributes to the heat flow. […]

[7] = lactic acid solution pH 2.6, 4-40 °C

B1: beta-casein: lyophilized bovine beta-casein (~24 kDa milk protein) self-assembled into nano-sized micelles at low or neutral pH (protein, UniProt P02666 16-224, looked up)
Beta-casein: RELEELNVPGEIVESLSSSEESITRINKKIEKFQSEEQQQTEDELQDKIHPFAQTQSLVYPFPGPIPNSLPQNIPPLTQTPVVVPPFLQPEVMGVSKVKEAMAPKHKEMPFPKYPVEPFTESQSLTLTDVENLHLPLPLLQSWMHQPHQPLPPTVMFPPQSVLSLSQSKVLPVPQKAVPYPQRDMPIQAFLLYQEPVLGPVRGPFPIIV
In the case of B1, the “critical micelle concentration (CMC)” value [1] is listed as 0.05-0.2%, the aggregation number ([2]; pH 2.6, around the CMC) is listed as 3 and the aggregation state ([2]; pH 2.6, concentrations lower than the CMC) is listed as “monomeric”. The Nagg ([2]; pH 7.0 and ionic strength 0.1) was 20, the turbidity [3] was “does not vary significantly” and the micelle shape ([4]; 20 mg/mL, pH 6.7, 0.05M NaCl, 4 °C and 10 °C) was “Flat micelles”. The micelle shape ([4]; 20 mg/mL, pH 6.7, 0.05M NaCl, 16, 25 and 40 °C) was “oblate micelles”, the micelle shape ([4]; 20 mg/mL, pH 6.7, 0.05M NaCl, 60 °C) was “Relatively spheroidal micelles” and the “length of elongated surfaces of micelles” value [4, 7] was 20-25 nm. The micelle shape [4, 7] was “flat disk-like micelles”, the micelle thickness [4, 7] was 3-4 nm and the width of micelles ([4]; pH 2.6) was “about 3.5 nm”. The “mean size of the assemblies” value [5] was “below 80 nm”, the “heat of demicellization, ΔHdemic” value ([6]; pH 2.6, 24 °C) was ~-4.28 kcal/mol and the CMC ([6]; pH 2.6, 24 °C, ITC) was 1.89 mg/mL. The CMC ([6]; pH 2.6, 25 °C row of table, found by ITC (footnote *)) was 0.19* wt %, the “relative micellization cooperativity (MR)” value ([6]; pH 2.6, IS 0.002, 24 °C) was 0.14 mM and the CMC ([6]; pH 2.6, ITC) was 0.079 mM. For the same molecule, the “heat of demicellization, ΔHdemic” value ([6]; pH 7.0 and IS of 0.1) was -9.687 kcal/mol.
